# Data published in US20220153819A1 (Regeneron, published 2022).
# Like-named read-outs stand apart in the source and are kept apart here.
# T1: CD20 on Raji cells (human, UniProt P11836 1-297)
# T1 sequence (looked up): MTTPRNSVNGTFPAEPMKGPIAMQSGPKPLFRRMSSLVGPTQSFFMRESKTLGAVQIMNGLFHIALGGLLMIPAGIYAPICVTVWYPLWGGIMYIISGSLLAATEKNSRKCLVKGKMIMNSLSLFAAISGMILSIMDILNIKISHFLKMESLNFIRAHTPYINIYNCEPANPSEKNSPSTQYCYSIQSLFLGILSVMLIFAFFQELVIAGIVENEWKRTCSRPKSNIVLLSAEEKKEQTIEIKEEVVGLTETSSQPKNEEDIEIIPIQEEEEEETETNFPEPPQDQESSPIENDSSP
# T2: IsdA.6×(His) (Staphylococcus aureus, UniProt A6QG31 47-316)
# T2 sequence: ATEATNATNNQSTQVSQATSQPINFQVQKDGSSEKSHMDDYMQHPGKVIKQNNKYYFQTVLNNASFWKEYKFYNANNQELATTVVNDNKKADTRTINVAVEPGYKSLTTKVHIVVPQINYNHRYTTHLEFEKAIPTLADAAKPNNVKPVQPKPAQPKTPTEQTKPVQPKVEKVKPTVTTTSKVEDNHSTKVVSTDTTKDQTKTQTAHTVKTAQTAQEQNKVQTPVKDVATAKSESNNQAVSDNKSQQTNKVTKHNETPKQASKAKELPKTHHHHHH
# T3: human GITR on Jurkat/hGITR/hCD20 cells (human, UniProt Q9Y5U5 26-241)
# T3 sequence (looked up): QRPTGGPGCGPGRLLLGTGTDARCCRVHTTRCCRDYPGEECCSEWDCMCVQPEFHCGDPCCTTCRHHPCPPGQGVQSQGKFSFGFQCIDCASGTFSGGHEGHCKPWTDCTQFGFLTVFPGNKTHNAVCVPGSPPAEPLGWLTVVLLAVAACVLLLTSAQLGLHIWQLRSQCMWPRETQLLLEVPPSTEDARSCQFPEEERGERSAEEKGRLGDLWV
# Key:
# IsdB.6×(His) = IsdB.6×(His) (Staphylococcus aureus, UniProt A6QG30 41-613); assay: SPR (Biacore T200), 37C; antibody captured, IsdB.6xHis injected
# [1] = target: T4, human complement component 1q (C1q) (human, UniProt P02745 23-245; P02746 28-253; P02747 29-245)
# T4 sequence (P02745 23-245, chain 1 of 3): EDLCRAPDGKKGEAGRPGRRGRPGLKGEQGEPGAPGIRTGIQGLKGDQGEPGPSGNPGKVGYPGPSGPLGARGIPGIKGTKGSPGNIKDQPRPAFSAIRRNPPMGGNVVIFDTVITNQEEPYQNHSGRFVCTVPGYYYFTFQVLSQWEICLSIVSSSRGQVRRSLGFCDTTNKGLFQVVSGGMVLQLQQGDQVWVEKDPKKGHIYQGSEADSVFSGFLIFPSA
# T4 sequence (P02746 28-253, chain 2 of 3): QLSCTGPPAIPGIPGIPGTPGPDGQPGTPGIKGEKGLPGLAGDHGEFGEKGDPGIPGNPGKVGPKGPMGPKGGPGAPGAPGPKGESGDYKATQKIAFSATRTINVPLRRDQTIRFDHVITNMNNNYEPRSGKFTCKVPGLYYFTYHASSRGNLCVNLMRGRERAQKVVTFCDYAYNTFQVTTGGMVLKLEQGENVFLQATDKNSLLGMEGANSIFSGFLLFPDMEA
# T4 sequence (P02747 29-245, chain 3 of 3): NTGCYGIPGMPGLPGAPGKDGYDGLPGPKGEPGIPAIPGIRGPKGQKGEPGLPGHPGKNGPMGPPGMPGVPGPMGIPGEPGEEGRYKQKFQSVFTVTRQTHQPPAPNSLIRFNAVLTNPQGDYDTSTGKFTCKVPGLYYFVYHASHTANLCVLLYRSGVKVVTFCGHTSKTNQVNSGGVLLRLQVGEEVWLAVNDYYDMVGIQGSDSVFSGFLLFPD
# [2] = target: T4, human complement component 1q (C1q); remark: listed apart in the source
# biotinylated human C1q [3] = target: T5, biotinylated human C1q (human, UniProt P02745 23-245; P02746 28-253; P02747 29-245)
# T5 sequence (P02745 23-245, chain 1 of 3): as the sequence (P02745 23-245, chain 1 of 3) above
# T5 sequence (P02746 28-253, chain 2 of 3): as the sequence (P02746 28-253, chain 2 of 3) above
# T5 sequence (P02747 29-245, chain 3 of 3): as the sequence (P02747 29-245, chain 3 of 3) above
# biotinylated human C1q [4] = target: T5, biotinylated human C1q; remark: listed apart in the source
# CD20 on Raji cells [5] = target: T1, CD20 on Raji cells
# CD20 on Raji cells [6] = target: T1, CD20 on Raji cells; remark: listed apart in the source
# [7] = target: T4, human complement component 1q (C1q); remark: listed apart in the source
# IsdA.6×(His) = target: T2, IsdA.6×(His); assay: SPR (Biacore), 37C; IsdA.6xHis captured, bsAb injected
# [8] = target: T6, hemagglutinin (HA) on A/Puerto Rico/08/1934 (H1N1)-infected MDCK cells (Influenza A virus A/Puerto Rico/08/1934 …, UniProt P03452 18-565); assay: cell-based or functional assay
# [9] = target: T6, hemagglutinin (HA) on A/Puerto …; assay: cell ELISA on fixed A/Puerto Rico/08/1934 (H1N1)-infected MDCK cells
# biotinylated human C1q [10] = target: T5, biotinylated human C1q
# biotinylated human C1q [11] = target: T5, biotinylated human C1q; remark: listed apart in the source
# [12] = target: T4, human complement component 1q (C1q); assay: SPR (Biacore T200), 25C; bsAb captured via anti-human F(ab')2, hC1q injected
# [13] = target: T4, human complement component 1q (C1q); assay: SPR (Biacore T200), 37C; bsAb captured via anti-human F(ab')2, hC1q injected
# [14] = target: T3, human GITR on Jurkat/hGITR/hCD20 cells
binder,measurement,setting,value
"parental bivalent anti-IsdB antibody (antibody, V domains shown, also called anti-IsdB bival; bivalent IsdB antibody) VH: EVQLVESGGGLVQPGRSLRLSCTTSGFTFDDYAMHWVRQVPGQGLEWVAGLSWNSDTIGYADSVKGRFTISRDNAKNSLYLQMKSLKAEDTALYYCTKDFYHSLNNWNYYYFDYWGQGTLVTVSS VL: not shown",Kd,IsdB.6×(His),1.75 nM
same,T1/2,IsdB.6×(His),18 min
same,koff,IsdB.6×(His),0.00064 s⁻¹
same,kon,IsdB.6×(His),365000 M⁻¹ s⁻¹
"REGN5409, anti-Psl x anti-C1q scFv bispecific antibody (bispecific antibody, human IgG1, lambda) heavy: not shown light: SSELTQDPAVSVALGQTVRITCQGDSLRSYYASWYQQKPGQAPVLVIYGKNNRPSGIPDRFSGSSSGNTASLTITGAQAEDEADYYCNSRDSSGNHVVFGGGTKLTVLGQPKAAPSVTLFPPSSEELQANKATLVCLISDFYPGAVTVAWKADSSPVKAGVETTTPSKQSNNKYAASSYLSLTPEQWKSHRSYSCQVTHEGSTVEKTVAPTECS scFv: not shown",Kd,[1],0.747 nM
same,koff,[1],0.00262 s⁻¹
same,kon,[1],3.51e+06 M⁻¹ s⁻¹
same,Kd,[2],2.41 nM
same,koff,[2],0.0116 s⁻¹
same,kon,[2],4.8e+06 M⁻¹ s⁻¹
same,Kd,biotinylated human C1q [3],431 nM
same,koff,biotinylated human C1q [3],0.0276 s⁻¹
same,kon,biotinylated human C1q [3],64000 M⁻¹ s⁻¹
same,Kd,biotinylated human C1q [4],343 nM
same,koff,biotinylated human C1q [4],0.0149 s⁻¹
same,kon,biotinylated human C1q [4],43500 M⁻¹ s⁻¹
"REGN5177, anti-CD20 x anti-C1q bispecific antibody (bispecific antibody, V domains shown) VH 1: QVHLVESGGGVVQPGRSLRLSCSVSGLTFNSYGMHWVRQAPGKGLEWVTMISYDGSDKYYLDSVKGRFTISRDNSKNILYLQINSLRPEDTAVYYCVNWDNWRGNFDYWGQGTLVTVSS VH 2: EVQLVESGGGVVQPGGSLRLSCAASGFSLDDYAMHWVRQTPGKGLEWVSLISGDGSRTSYADSVKGRFTISRDNSKNSLYLKMNSLRTEDTALYYCTKDPHNSNWFDPWGQGTLVTVSS VL: not shown",Kd,[1],0.688 nM
same,koff,[1],0.00224 s⁻¹
same,kon,[1],3.26e+06 M⁻¹ s⁻¹
same,Kd,[2],0.481 nM
same,koff,[2],0.00499 s⁻¹
same,kon,[2],1.04e+07 M⁻¹ s⁻¹
same,Kd,biotinylated human C1q [3],436 nM
same,koff,biotinylated human C1q [3],0.0442 s⁻¹
same,kon,biotinylated human C1q [3],101000 M⁻¹ s⁻¹
same,EC50,CD20 on Raji cells [5],35.6 nM
same,EC50,CD20 on Raji cells [6],35.7 nM
"REGN5553, anti-IsdA x anti-C1q bispecific antibody (bispecific antibody, V domains shown, also called bsC1q × IsdA; bs hC1q × IsdA) VH 1: EVQLVESGGGLVQPGRSLRVSCAASGFTFDDYAMHWVRQIPGKGLEWVSGIRWNSDTIGYADSVKGRFTISRDNAKNFLYLQMNSLRTEDTALYYCVKDMRVRGIIMYGMDVWGQGTTVTVSS VH 2: EVQLVESGGGVVQPGGSLRLSCAASGFSLDDYAMHWVRQTPGKGLEWVSLISGDGSRTSYADSVKGRFTISRDNSKNSLYLKMNSLRTEDTALYYCTKDPHNSNWFDPWGQGTLVTVSS VL: not shown",Kd,[7],1.3 nM
same,koff,[7],0.00469 s⁻¹
same,kon,[7],3.62e+06 M⁻¹ s⁻¹
same,Kd,IsdA.6×(His),3.62 nM
same,T1/2,IsdA.6×(His),11.8 min
same,koff,IsdA.6×(His),0.000977 s⁻¹
same,kon,IsdA.6×(His),270000 M⁻¹ s⁻¹
"mAb14303, anti-CD20 parental bivalent hIgG1 antibody (antibody, V domains shown) VH: QVHLVESGGGVVQPGRSLRLSCSVSGLTFNSYGMHWVRQAPGKGLEWVTMISYDGSDKYYLDSVKGRFTISRDNSKNILYLQINSLRPEDTAVYYCVNWDNWRGNFDYWGQGTLVTVSS VL: not shown",EC50,CD20 on Raji cells [5],6.03 nM
same,EC50,CD20 on Raji cells [6],6.03 nM
"Rituximab (antibody, V domains shown) VH: QVQLQQPGAELVKPGASVKMSCKASGYTFTSYNMHWVKQTPGRGLEWIGAIYPGNGDTSYNQKFKGKATLTADKSSSTAYMQLSSLTSEDSAVYYCARSTYYGGDWYFNVWGAGTTVTVSA VL: QIVLSQSPAILSASPGEKVTMTCRASSSVSYIHWFQQKPGSSPKPWIYATSNLASGVPVRFSGSGSGTSYSLTISRVEAEDAATYYCQQWTSNPPTFGGGTKLEIK",EC50,CD20 on Raji cells [5],3.14 nM
same,EC50,CD20 on Raji cells [6],3.14 nM
"mAb11829, parental anti-HA bivalent antibody (antibody, V domains shown, also called Flu A, group 1 HA; parental HA bivalent antibody) VH: QVHLVQSGPEVKKPGSSVKVSCKASGVTFISHAISWVRQAPGQGLEWVGGIIAIFGTTNYAQKFQGRVTVTTDKSTNTVYMELSRLRSEDTAIYYCARGETYYEGNFDFWGQGTLVTVSS VL: not shown",CDC EC50 (H1N1-infected MDCK cells),[8],20.8 nM
same,Maximum percent specific lysis (CDC of H1N1-infected MDCK cells),[8],35.8%
same,EC50,[9],1.46 nM
same,Maximum binding (RLUs),[9],788000 RLU
"mAb27250, one-arm parental HA antibody (antibody, V domains shown, also called Flu A, group 1, one arm) VH: QVHLVQSGPEVKKPGSSVKVSCKASGVTFISHAISWVRQAPGQGLEWVGGIIAIFGTTNYAQKFQGRVTVTTDKSTNTVYMELSRLRSEDTAIYYCARGETYYEGNFDFWGQGTLVTVSS VL: not shown",CDC EC50 (H1N1-infected MDCK cells),[8],20.7 nM
same,Maximum percent specific lysis (CDC of H1N1-infected MDCK cells),[8],39%
same,EC50,[9],0.648 nM
same,Maximum binding (RLUs),[9],719000 RLU
"REGN6093, anti-Influenza HA x anti-C1q bispecific antibody (bispecific antibody, V domains shown, also called FluA group 1 x C1q bispecific; anti-HA x anti-C1q) VH 1: QVHLVQSGPEVKKPGSSVKVSCKASGVTFISHAISWVRQAPGQGLEWVGGIIAIFGTTNYAQKFQGRVTVTTDKSTNTVYMELSRLRSEDTAIYYCARGETYYEGNFDFWGQGTLVTVSS VH 2: EVQLVESGGGVVQPGGSLRLSCAASGFSLDDYAMHWVRQTPGKGLEWVSLISGDGSRTSYADSVKGRFTISRDNSKNSLYLKMNSLRTEDTALYYCTKDPHNSNWFDPWGQGTLVTVSS VL: not shown",CDC EC50 (H1N1-infected MDCK cells),[8],10.5 nM
same,Maximum percent specific lysis (CDC of H1N1-infected MDCK cells),[8],30%
same,Kd,biotinylated human C1q [10],327 nM
same,koff,biotinylated human C1q [10],0.0309 s⁻¹
same,kon,biotinylated human C1q [10],94600 M⁻¹ s⁻¹
same,t1/2,biotinylated human C1q [10],0.37 min
same,Kd,biotinylated human C1q [11],516 nM
same,koff,biotinylated human C1q [11],0.0937 s⁻¹
same,kon,biotinylated human C1q [11],182000 M⁻¹ s⁻¹
same,t1/2,biotinylated human C1q [11],0.12 min
same,EC50,[9],1.84 nM
same,Maximum binding (RLUs),[9],849000 RLU
same,Kd,[12],0.451 nM
same,koff,[12],0.00216 s⁻¹
same,kon,[12],4.8e+06 M⁻¹ s⁻¹
same,t1/2,[12],5.3 min
same,Kd,[13],1.11 nM
same,koff,[13],0.00401 s⁻¹
same,kon,[13],3.61e+06 M⁻¹ s⁻¹
same,t1/2,[13],2.9 min
"REGN5536, anti-PNAG x anti-C1q scFv bispecific antibody (bispecific antibody, human IgG1, lambda) heavy: not shown light: QLVLTQSPSASASLGASVKLTCTLSSGHSNYAIAWHQQQPGKGPRYLMKVNRDGSHIRGDGIPDRFSGSTSGAERYLTISSLQSEDEADYYCQTWGAGIRVFGGGTKLTVLGQPKAAPSVTLFPPSSEELQANKATLVCLISDFYPGAVTVAWKADSSPVKAGVETTTPSKQSNNKYAASSYLSLTPEQWKSHRSYSCQVTHEGSTVEKTVAPTECS scFv: not shown",Kd,[7],0.632 nM
same,koff,[7],0.0102 s⁻¹
same,kon,[7],1.61e+07 M⁻¹ s⁻¹
"REGN5372, anti-GITR bivalent hIgG1 antibody (antibody, V domains shown) VH: QVQLQESGPGLVKPSETLSLTCIVSGGSISGYFWNWIRQPPGKGLEWIGYIYYSGTTIYNPSLKSRFTISLDTSKNQFSLKLTSVTAADTAVYYCARESYNPSPRYFDHWGQGTLVTVSS VL: not shown",EC50,[14],3.07 nM
